Assay results taken from patent US12649778.
Where “and” joins values, the source holds several entries; their conditions need not be identical. Equal entries are not always repeated. Where two headings read alike, the source gives them in different places.

Experiments:
[1] = target: Peptide 1593 (…) (Mycobacterium tuberculosis); experiment: SPR (Biacore), IgG amine-coupled, peptide as analyte
[2] = target: Peptide 1593 (…) (Mycobacterium tuberculosis)
[3] = target: Peptide 1593 (…) (Mycobacterium tuberculosis); experiment: ELISA, Fab supernatant on coated peptide
[4] = target: Peptide 1593 (…) (Mycobacterium tuberculosis); remark: listed apart in the source

B1: 65D3 mutant IgG variant 1 (S55W&G64K-VH + S57T-VL) (antibody)
heavy: QSLEESGGRLVTPGGSLTLTCTVSGFSLSTHDISWVRQAPGKGLEWIGVIARRGWTYYASWAKKRFTISKTSTTVDLKITSPTIEDTATYFCAREEFDFWGQGTLVTVSSGQPKAPSVFPLAPCCGDTPSSTVTLGCLVKGYLPEPVTVTWNSGTLTNGVRTFPSVRQSSGLYSLSSVVSVTSSSQPVTCNVAHPATNTKVDKTVAPSTCSKPTCPPPELLGGPSVFIFPPKPKDTLMISRTPEVTCVVVDVSQDDPEVQFTWYINNEQVRTARPPLREQQFNSTIRVVSTLPIAHQDWLRGKEFKCKVHNKALPAPIEKTISKARGQPLEPKVYTMGPPREELSSRSVSLTCMINGFYPSDISVEWEKNGKAEDNYKTTPAVLDSDGSYFLYSKLSVPTSEWQRGDVFTCSVMHEALHNHYTQKSISRSPGK
light: AVLTQTASPVSAAVGGTVTISCQSSQSVYNNKELSWFQQKPGQPPKLLISYASTLATGVPSRFKGSGSGTQFTLTISDLECDDAATYYCLGGYASTIDMWAFGGGTEVVVKGDPVAPTVLIFPPAADQVATGTVTIVCVANKYFPDVTVTWEVDGTTQTTGIENSKTPQNSADCTYNLSSTLTLTSTQYNSHKEYTCKVTQGTTSVVQSFNRGDC
For B1, the Kd [1] was 2.6 nM, the koff [1] was 0.00027 s⁻¹ and the kon [1] was 104000 M⁻¹ s⁻¹. The Kd [2] was 2.7 nM.

B2: chimeric Fab antibody of 65D3 (wild type) (Fab, V domains shown)
VH: QSLEESGGRLVTPGGSLTLTCTVSGFSLSTHDISWVRQAPGKGLEWIGVIARRGSTYYASWAKGRFTISKTSTTVDLKITSPTIEDTATYFCAREEFDFWGQGTLVTVSS
VL: AVLTQTASPVSAAVGGTVTISCQSSQSVYNNKELSWFQQKPGQPPKLLISYASTLASGVPSRFKGSGSGTQFTLTISDLECDDAATYYCLGGYASTIDMWAFGGGTEVVVK
With B2 the OD450 at 0.00390625 ug/ml coated antigen [3] was 0.133 OD450 and 0.147 OD450, the OD450 at 0.0078125 ug/ml coated antigen [3] was 0.319 OD450 and 0.341 OD450 and the OD450 at 0.00953125 ug/ml coated antigen (so in the source) [3] was 0.084 OD450. For the same binder, the OD450 at 0.015625 ug/ml coated antigen [3] was 0.73 OD450 and 0.789 OD450, the OD450 at 0.03125 ug/ml coated antigen [3] was 1.21 OD450 and 1.37 OD450 and the OD450 at 0.0625 ug/ml coated antigen [3] was 1.71 OD450 and 1.8 OD450. For the same binder, the OD450 at 0.125 ug/ml coated antigen [3] was 1.94 OD450 and 2.04 OD450, the OD450 at 0.25 ug/ml coated antigen [3] was 2.18 OD450 and 2.23 OD450 and the OD450 at 0.5 ug/ml coated antigen [3] was 2.27 OD450 and 2.25 OD450. The OD450 at 1 ug/ml coated antigen [3] was 2.3 OD450 and 2.31 OD450 and the OD450 nm (single well) [4] was 0.879 and 0.794.

B3: 65D3 mutant IgG variant 3 (S55W-VH + VL) (antibody)
heavy: QSLEESGGRLVTPGGSLTLTCTVSGFSLSTHDISWVRQAPGKGLEWIGVIARRGWTYYASWAKGRFTISKTSTTVDLKITSPTIEDTATYFCAREEFDFWGQGTLVTVSSGQPKAPSVFPLAPCCGDTPSSTVTLGCLVKGYLPEPVTVTWNSGTLTNGVRTFPSVRQSSGLYSLSSVVSVTSSSQPVTCNVAHPATNTKVDKTVAPSTCSKPTCPPPELLGGPSVFIFPPKPKDTLMISRTPEVTCVVVDVSQDDPEVQFTWYINNEQVRTARPPLREQQFNSTIRVVSTLPIAHQDWLRGKEFKCKVHNKALPAPIEKTISKARGQPLEPKVYTMGPPREELSSRSVSLTCMINGFYPSDISVEWEKNGKAEDNYKTTPAVLDSDGSYFLYSKLSVPTSEWQRGDVFTCSVMHEALHNHYTQKSISRSPGK
VL: AVLTQTASPVSAAVGGTVTISCQSSQSVYNNKELSWFQQKPGQPPKLLISYASTLASGVPSRFKGSGSGTQFTLTISDLECDDAATYYCLGGYASTIDMWAFGGGTEVVVK
For B3, the Kd [1] was 2.03 nM, the koff [1] was 0.00026 s⁻¹ and the kon [1] was 128000 M⁻¹ s⁻¹.
